{"source": "patent US7385023B1", "about": "“Cancer immunotherapy and diagnosis using cytochrome P450 1B1” (Trustees of Boston University, priority 2000, dated 2008)", "molecules": {"B1": {"name": "CYP239 peptide from cytochrome P450 1B1 (SLVDVMPWL) (peptide)", "peptide": "SLVDVMPWL", "notes": "Synthetic peptide bought from Sigma Genosys"}, "B2": {"name": "CYP239-139 heteroclitic peptide (YLYDVMPWV) (peptide)", "peptide": "YLYDVMPWV", "notes": "Designed variant of CYP239 changed at positions 1, 3 and 9"}, "B3": {"name": "CYP239-19 heteroclitic peptide (YLVDVMPWV) (peptide)", "peptide": "YLVDVMPWV", "notes": "Designed variant of CYP239 changed at positions 1 and 9"}}, "key": {"T2 cells": {"tested_on": "T2 cells", "test": "51Cr release cytotoxicity assay, peptide-pulsed T2 cells", "type": "cell-based", "conditions": "for recognition by CYP239-specific CTL of target cells pulsed with heteroclitic peptide: CTL generated against wild type CYP239", "from_the_text": "To assess cytolytic function CTL lines were used after at least four antigenic stimulations in standard ^51Cr release assays as previously described (Vonderheide et al., Immunity 10:673-679, 1999)."}, "[1]": {"tested_on": "HLA-A2+ ovarian carcinoma cell line 36M", "from_the_text": "To assess cytolytic function CTL lines were used after at least four antigenic stimulations in standard ^51Cr release assays as previously described (Vonderheide et al., Immunity 10:673-679, 1999). […] Monocytes as targets were isolated from PBMC by RosetteSep® (Stem Cell Technologies, Vancouver) following the manufacturer's recommendations."}, "[2]": {"tested_on": "T cells from HLA-A2+ multiple myeloma patients", "conditions": "n=10"}, "[3]": {"tested_on": "T cells from HLA-A2+ healthy donors", "conditions": "for healthy donors with peptide-specific T cells detected / expansion: n=8, day 10"}, "[4]": {"tested_on": "primary follicular lymphoma (FL) cells", "test": "51Cr release cytotoxicity assay, primary follicular lymphoma", "type": "cell-based, human", "conditions": "HLA-A2+ CYP1B1+ FL, CTL from healthy donors", "method": "CYP1B1-specific CTLs were then evaluated for cytotoxicity against primary tumor tissue."}, "HLA-A*0201": {"biological_target": "HLA-A*0201 (Homo sapiens, UniProt P04439, D140Y/D185E/D98H/E176V/E277Q/G131W/G231S/I119V/I121R/I166T/I218V/L300P/L318F/N151K/N90K/P208A/P217A/Q86G/Q94H/R138H/R169H/T345S)", "test": "HLA-A2/peptide complex stability on TAP-deficient T2 cells", "type": "binding", "quoted_text": "In particular, T2 cells were incubated with peptide in serum-free medium for up to 18 hours, harvested, washed, and subsequently stained with FITC-labeled anti-HLA-A2 mAb BB7.2 (maximum peptide binding). Increase in fluorescence intensity was determined as a function of peptide binding. For analysis of complex stability, T2 cells were cultured in serum-free media for an additional 2, 4, 6, or 24 hours, and subsequently analyzed for HLA-A2 expression by flow cytometry.\nThe T2 assay described above was used to determine binding and dissociation rate of heteroclitic peptides engineered for optimal binding to HLA molecules."}, "[5]": {"tested_on": "HLA-A2+ primary ALL cells", "test": "51Cr release cytotoxicity assay, primary ALL", "type": "cell-based, human", "method": "Peptides were pulsed onto TAP-deficient T2 cells, and the maximum binding and the stability over time were assessed by flow cytometry. […] Additional experiments were carried out to characterize these peptides, in particular, CYP190."}, "[6]": {"tested_on": "CD8+ T cells of HLA-A2+ cancer patients", "test": "Ex vivo generation of peptide-specific CTL from cancer patients", "type": "cell-based, human", "source_text": "Similar to experiments described for healthy donors, we next attempted to generate CYP1B1-specific CTL from peripheral blood of cancer patients. […] Due to lower numbers of PBMC available, CYP246-specific CTL cultures were only initiated in patients 3 and 4. […] Because autologous tumor cells were not available from these patients, we tested the same FL samples described above as primary tumor targets. CYP239-specific CTL from patient 1 lysed both HLA-A2^+ FL samples but not the HLA-A2^− (18% vs. 0% at an E:T ration of 30:1)."}, "[7]": {"tested_on": "CD8+ T cells of healthy HLA-A2+ donors", "test": "Ex vivo generation of peptide-specific CTL from healthy HLA-A2+ donors", "quoted_text": "From a single blood draw, professional APCs, including DCs and CD40-activated B cells, are generated, and the remaining PBMCs are enriched for CD8+ T cells. T cells are primarily stimulated with peptide-pulsed DC, and repeatedly stimulated with peptide-pulsed CD40-B cells. Peptide-specificity and HLA-restriction is analyzed after a total of 2-5 stimulations, depending on the antigen under study.\nCTL were generated as previously described (Vonderheide et al., Immunity 10:673-679, 1999), CD8^+ T cells (>80% CD8^+, >95% CD3^+, <2.0% CD4^+, and <5% CD56^+) were isolated from PBMC by negative selection using magnetic beads. B cells were activated via CD40, and DC were prepared from peripheral blood monocytes with IL-4 and GM-CSF (Schultze et al., J. Clin. Invest. 100:2757-2765, 1997). DC were harvested after 7 days, pulsed with peptide (40 μg/ml) and β2-microglobulin (3 μg/ml) for 2 hr at 37° C., irradiated (33 Gy), and added to autologous CD8+ T cells at a T:DC ratio of 20:1 in RPMI media supplemented with 10% human AB serum, 2 mM glutamine, 15 μg/ml gentamicin, 20 mMHEPES, and 15 ng/ml IL-7 (Endogen, Woburn, Mass.). At day 7 and weekly thereafter, T cell cultures were harvested and restimulated with irradiated (33 Gy), peptide-pulsed (10 μg/ml) autologous CD40-activated B cells. […]"}, "[8]": {"biological_target": "T1, HLA-A*0201 on the surface of TAP-deficient T2 cells (human)", "T1 construct": "detected with FITC-labeled mAb BB7.2; also called HLA-A2", "test": "T2 cell HLA-A*0201 stabilisation assay, flow cytometry with FITC-BB7.2"}, "[9]": {"biological_target": "T1, HLA-A*0201 on the surface of …", "test": "T2 cell assay of HLA-A*0201/peptide complex stability, flow cytometry"}, "[10]": {"biological_target": "T1, HLA-A*0201 on the surface of …", "test": "TAP-deficient T2 cell assay, flow cytometry"}}, "note": "Peptide text beside a SMILES is read from it.", "data": [{"molecule": "CSCC[C@H](NC(=O)[C@@H](NC(=O)[C@H](CC(=O)O)NC(=O)[C@H](Cc1ccc(O)cc1)NC(=O)[C@H](CC(C)C)NC(=O)[C@@H](N)Cc1ccc(O)cc1)C(C)C)C(=O)N1CCC[C@H]1C(=O)N[C@@H](Cc1c[nH]c2ccccc12)C(=O)N[C@H](C(=O)O)C(C)C", "note": "[CYP239-139] (H-YLYDVMPWV-OH; N-terminus and C-terminus assumed)", "values": [{"measurement": "recognition by CYP239-specific CTL of target cells pulsed with heteroclitic peptide", "setting": "T2 cells", "result": "do not recognize"}]}, {"molecule": "CC(C)C[C@H](NC(=O)[C@@H](N)Cc1c[nH]c2ccccc12)C(=O)N[C@@H](CCC(N)=O)C(=O)N[C@@H](Cc1ccc(O)cc1)C(=O)N[C@@H](Cc1ccccc1)C(=O)N1CCC[C@H]1C(=O)N[C@@H](CC(N)=O)C(=O)N1CCC[C@H]1C(=O)N[C@H](C(=O)O)C(C)C", "note": "[CYP246] (H-WLQYFPNPV-OH; N-terminus and C-terminus assumed)", "values": [{"measurement": "cytotoxicity against 36M by peptide-specific CTL", "setting": "[1]", "result": "specific cytotoxicity"}, {"measurement": "patients with reactive T cells >0.05% on day 10", "setting": "[2]", "result": 5}, {"measurement": "highest level of peptide-specific T cells in one healthy donor", "setting": "[3]; day 10", "result": 0.5, "unit": "%"}, {"measurement": "healthy donors with peptide-specific T cells detected / expansion", "setting": "[3]", "result": 2}, {"measurement": "cytotoxicity for HLA-A2+ FL by peptide-specific CTL", "setting": "[4]", "result": "cytotoxic"}]}, {"molecule": "FLDPRPLTV [CYP190]", "values": [{"measurement": "HLA-A2/peptide complex stability", "setting": "HLA-A*0201", "result": "longest half-life on the cell surface"}, {"measurement": "time after peptide withdrawal at which peptide/A2 complexes can be detected", "setting": "HLA-A*0201", "result": "≥ 24", "unit": "h"}, {"measurement": "lysis of HLA-A2+ primary ALL cells by peptide-specific CTL", "setting": "[5]", "result": "can lyse"}, {"measurement": "generation of peptide-specific CTL from cancer patients", "setting": "[6]", "result": "can be generated from HLA-A2^+ cancer patients"}, {"measurement": "lysis of peptide-pulsed T2 cells by peptide-specific CTL", "setting": "T2 cells; CTL from healthy donors", "result": "can lyse"}, {"measurement": "generation of peptide-specific CTL from normal donors", "setting": "[7]", "result": "can be generated from normal HLA-A2^+ donors"}]}, {"molecule": "CSCC[C@H](NC(=O)[C@@H](NC(=O)[C@H](CC(=O)O)NC(=O)[C@@H](NC(=O)[C@H](CC(C)C)NC(=O)[C@@H](N)CO)C(C)C)C(C)C)C(=O)N1CCC[C@H]1C(=O)N[C@@H](Cc1c[nH]c2ccccc12)C(=O)N[C@@H](CC(C)C)C(=O)O", "note": "[CYP239] (H-SLVDVMPWL-OH)", "values": [{"measurement": "cytotoxicity against 36M by peptide-specific CTL", "setting": "[1]", "result": "specific cytotoxicity"}, {"measurement": "patients with reactive T cells >0.05% on day 10", "setting": "[2]", "result": 4}, {"measurement": "healthy donors with peptide-specific T cells detected / expansion", "setting": "[3]", "result": "No expansion"}, {"measurement": "cytotoxicity for HLA-A2+ FL by peptide-specific CTL", "setting": "[4]", "result": "cytotoxic"}]}, {"molecule": "CSCC[C@H](NC(=O)[C@@H](NC(=O)[C@H](CC(=O)O)NC(=O)[C@@H](NC(=O)[C@H](CC(C)C)NC(=O)[C@@H](N)Cc1ccc(O)cc1)C(C)C)C(C)C)C(=O)N1CCC[C@H]1C(=O)N[C@@H](Cc1c[nH]c2ccccc12)C(=O)N[C@H](C(=O)O)C(C)C", "note": "[CYP239-19] (H-YLVDVMPWV-OH; N-terminus and C-terminus assumed)", "values": [{"measurement": "recognition by CYP239-specific CTL of target cells pulsed with heteroclitic peptide", "setting": "T2 cells", "result": "equally well"}]}, {"molecule": "B1", "values": [{"measurement": "Binding affinity [FI] (fluorescence index)", "setting": "[8]", "result": 3.8}, {"measurement": "T2 assay result at 0 h post-pulsing", "setting": "[9]", "result": 1.91}, {"measurement": "T2 assay result at 2 h post-pulsing", "setting": "[9]", "result": 1.37}, {"measurement": "T2 assay result at 4 h post-pulsing", "setting": "[9]", "result": 0.78}, {"measurement": "T2 assay result at 6 h post-pulsing", "setting": "[9]", "result": 0.58}, {"measurement": "T2 assay result at 24 h post-pulsing", "setting": "[9]", "result": 0.12}]}, {"molecule": "B2", "values": [{"measurement": "T2 assay result at 0 h post-pulsing", "setting": "[9]", "result": 2}, {"measurement": "T2 assay result at 2 h post-pulsing", "setting": "[9]", "result": 1.51}, {"measurement": "T2 assay result at 4 h post-pulsing", "setting": "[9]", "result": 1.24}, {"measurement": "T2 assay result at 6 h post-pulsing", "setting": "[9]", "result": 1.16}, {"measurement": "T2 assay result at 24 h post-pulsing", "setting": "[9]", "result": 0.73}]}, {"molecule": "B3", "values": [{"measurement": "T2 assay result at 0 h post-pulsing", "setting": "[9]", "result": 2.16}, {"measurement": "T2 assay result at 2 h post-pulsing", "setting": "[9]", "result": 1.57}, {"measurement": "T2 assay result at 4 h post-pulsing", "setting": "[9]", "result": 1.31}, {"measurement": "T2 assay result at 6 h post-pulsing", "setting": "[9]", "result": 1.13}, {"measurement": "T2 assay result at 24 h post-pulsing", "setting": "[9]", "result": 0.72}]}, {"molecule": "WLQYFPNPV", "note": "[CYP246 peptide from cytochrome P450 1B1 (WLQYFPNPV)]", "values": [{"measurement": "Binding affinity [FI] (fluorescence index)", "setting": "[8]", "result": 3.4}]}, {"molecule": "FLDPRPLTV", "note": "[CYP190 peptide from cytochrome P450 1B1 (FLDPRPLTV)]", "values": [{"measurement": "binding result", "setting": "[10]", "result": "binds"}]}]}
